Biological target: the molecule itself
Experiment: SEC; size-exclusion chromatography of recombinant senataxin (1–600) after cleavage from GST

B1: recombinant amino-terminal senataxin (1–600), GST cleaved (domain or fragment, human, UniProt Q7Z333-1 1-600, looked up)
chain: MSTCCWCTPGGASTIDFLKRYASNTPSGEFQTADEDLCYCLECVAEYHKARDELPFLHEVLWELETLRLINHFEKSMKAEIGDDDELYIVDNNGEMPLFDITGQDFENKLRVPLLEILKYPYLLLHERVNELCVEALCRMEQANCSFQVFDKHPGIYLFLVHPNEMVRRWAILTARNLGKVDRDDYYDLQEVLLCLFKVIELGLLESPDIYTSSVLEKGKLILLPSHMYDTTNYKSYWLGICMLLTILEEQAMDSLLLGSDKQNDFMQSILHTMEREADDDSVDPFWPALHCFMVILDRLGSKVWGQLMDPIVAFQTIINNASYNREIRHIRNSSVRTKLEPESYLDDMVTCSQIVYNYNPEKTKKDSGWRTAICPDYCPNMYEEMETLASVLQSDIGQDMRVHNSTFLWFIPFVQSLMDLKDLGVAYIAQVVNHLYSEVKEVLNQTDAVCDKVTEFFLLILVSVIELHRNKKCLHLLWVSSQQWVEAVVKCAKLPTTAFTRSSEKSSGNCSKGTAMISSLSLHSMPSNSVQLAYVQLIRSLLKEGYQLGQQSLCKRFWDKLNLFLRGNLSLGWQLTSQETHELQSCLKQIIRNIKFKAP
notes: vector pGEX-4T-2; also called purified senataxin peptide; source: E. coli, GST-tagged, purified after in vitro cleavage
Question: B1 was tested. Which “stoichiometry N” value did it give?
Answer: Its value is 2.

— paper PMC3823977, “Protein Interaction Analysis of Senataxin and the ALS4 L389S Mutant Yields Insights into Senataxin Post-Translational Modification and Uncovers Mutant-Specific Binding with a Brain Cytoplasmic RNA-Encoded Peptide” (PLoS ONE, 2013)
